Tested on: K4 kissing-loop RNA reporter
Test: apparent KD of K4 kissing-loop reporter; higher = weaker reporter binding
Conditions: Eterna round: R107
Protocol: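 RNA-MaP round R107: designed RNA switches with theophylline, tryptophan, arginine or FMN aptamers are transcribed on-chip within common flanks. They are titrated with a labelled K4 kissing-loop RNA reporter in RNA-MaP buffer (100 mM Tris pH 7.5, 80 mM KCl, 4 mM MgCl2), without ligand or with the indicated ligand. Median apparent KD per design.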

[1] = input ligand: theophylline 20 uM
[2] = input ligand: tryptophan 2.4 mM
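Further: bound reporter read as fluorescence of individual clusters on recovered sequencing chips by microscopy, with normalized cluster intensities fitted with a binding model.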

Sequence | apparent KD of K4 kissing-loop reporter (input ligand: FMN 200 uM) | apparent KD of K4 kissing-loop reporter (input ligand: arginine 13.2 mM) | apparent KD of K4 kissing-loop reporter (input ligand: none) | apparent KD of K4 kissing-loop reporter [1] | apparent KD of K4 kissing-loop reporter [2]
AUUUUUAACUGAGGAUAUCGAAUUUAUGUAGUGAUGUUACUUUAAAUUAAAAUUUUAAUUUCUUAACGAGAAGGCAGAAUAAUUA [JR_SSFMNB_Sub025] | 111 nM | 194 nM | 109 nM | 204 nM | 85.4 nM
AAUAGAUCAUUAUAGUGAUAAAUGCCUGAUACCAGUGAGAGAUGGCACCCUUGGCAGCAGAGAUGAGUGAUGUUCAGACUGUAAA [theeternabot_sameState_KL_Theo_A_11] | 114 nM | 118 nM | 104 nM | 123 nM | 91 nM
GCCGCCGCGGCAGGAUAUAGGUUCAUGGAGUGAUGUUCCAUAACCCGAGUGAUGUUCGUUAUCCGCCUAGAAGGGCCGCGGCGGC | 201 nM | 166 nM | 205 nM | 177 nM | 169 nM
UUUUUAUAAGAGGAUACCAGUACAAAUAAAGUACAUUAAUAGUAGAGUGAUGUUCUAAAGUACCCUUGGCAGCUUAGAUUAAGUU [ExTheophylB.D] | 158 nM | 268 nM | 172 nM | 255 nM | 117 nM
AAACAUCACUGGGAGUGAUGUUCUCAGUGACGAGGACCGGUACGGCCGCCACUCGCGAGAGAACUAGUCUAGUCUUGACUGCAUU [Excl Tryptophan A V14] | 277 nM | 333 nM | 335 nM | 418 nM | 398 nM
ACCCGUAGGAUACGGAGGUGUAAAUGGGUAUAGGAUAUCUAGAAAUAGAGAAGGAUACCAGUGAUGUUGGUUCCGUAUAUCUUAA | 272 nM | 137 nM | 105 nM | 90 nM | 119 nM
GGGAGGAACUGAGGAUAUUCGAAGAAAUAUAGUGAUGUUAUGUAAGGAGGAGGAGGGAGGGAGGAAGGAGAAGGCAGAAGAGGAG [ExFMNB.A] | 428 nM | 415 nM | 500 nM | 294 nM | 433 nM
AAUUUAUAUUUAUUCUUUAAAUGUUCAGAAGGAGCGUGAAUUAUCACAGGUAGGUCGCUGGGCUAGUGAUGUUGGCUAUAUACUA [whbob_Ex_Arginine_A_2t125] | 150 nM | 186 nM | 162 nM | 196 nM | 124 nM
UAUCAGAUUACUGAUACCAGUCUAAAGACAGUGAUGUUGUCUGAUCGACCACGAUCAAAGGACCCUUGGCAGCAGUAUACUAUUC [Theo B SS t5] | 163 nM | 157 nM | 157 nM | 164 nM | 158 nM
CUUGUACAAGUGAUGUUUGUUAUAUCCGAAGGAGCGUCGUACUAGACAGGUAGGUCGCGGAUGAAGAUAGUUUUUUUAAUAUCAU [JR_Nu_SSArginiA_Sub028] | 687 nM | 474 nM | 761 nM | 648 nM | 533 nM
GUAUCGCUAGGAGGAUAUUUCAAAUCGCCAAUAAAUGGUGAUACGGAGUGAUGUUCCGAUUUACGGAAAGAAGGCCUAGUGAUAC [FMN B 6] | 135 nM | 269 nM | 322 nM | 288 nM | 268 nM
UUCAGUGAUGUUGAACACUGUUGUAUAAACUAGGAUAUGCUGAUAAGCAGAAGGAGUGAUGUUCCGUUCAACAUCAGAAUUAAAU [#08 K4 FMN A Exclusion] | 662 nM | 415 nM | 488 nM | 496 nM | 269 nM
AACGCUGUGAAUAACACAGCGAAUAAUUCGCGAGGACCGGUACGGCCGCCACUCGCUAACUGCGAGUGAUGUUCGAUAAUAAAAU [Mat - Mod of OpenEnded 3 - D12] | 148 nM | 116 nM | 177 nM | 237 nM | 113 nM
GUACCUUGGAAACAAGGACAGCUCACCGAAGGAGCGCGUGAAAACGCAGGUAGGUCGCGGUAGCGGAGUGAUGUUCCGCGAGGGC [Same State Arginine A GF 20] | 114 nM | 99.5 nM | 100 nM | 112 nM | 106 nM
UGAUACCAGACUGAUACCAGCCAGUGAUGUUGGCUAAGCCGAAGAGGUGUCAUAGACACCGGCCCUUGGCAGCAGUCUGGUAUCU [#07 K4 Theophylline B Exclusion] | 120 nM | 110 nM | 120 nM | 108 nM | 117 nM
UACUAGUGAAACUAGUAGGUGCUAGGUGAAGGAGCGAUCGAAAGAUCAGGUAGGUCGCACCUUCCUGAGUGAUGUUCAGGUAAUA [KL-SSArg-A3] | 47.2 nM | 29.6 nM | 44.5 nM | 59.1 nM | 40.9 nM
AGGUAUGUCUGAAGGAGCGACUAAGAAGCAGUGAUGUUGCUAAGUAGUAAGUAGCUACGUAGUCAGGUAGGUCGCAGAUAUACCU [Arg B SS t14] | 322 nM | 348 nM | 257 nM | 349 nM | 189 nM
CUCGACACGGGAAGGAGCGGUUGCGUGUGCCAGUGAUGUUGGAUCAGCAGACUGCCCGGUAGCCAGGUAGGUCGCCUGUGCUGAG [Esbeescexe] | 219 nM | 166 nM | 162 nM | 189 nM | 142 nM
AGUGAUGUUUCUUUUAAGAGUGAUGUUUUUCGAGGACCGGUACGGCCGCCACUCGAGUGAUGAGUGCGUCGUUGUGGUGAUUAGU [#13 K4 Tryptophan A Exclusion] | 483 nM | 281 nM | 463 nM | 379 nM | 229 nM
CGGCUCAAUCCUAGUAUUAAGAGGGAGUUGCGAGGACCGGUACGGCCGCCACUCGAAGUAGUUUGGCCAGUGAUGUUGGUCUUAC [Mabeleon] | 203 nM | 194 nM | 210 nM | 204 nM | 121 nM
GUAGCACUCGGUAGUGAUGUUAUCGAGGACAAGGAUAUCAUCUCAAUGAGAAGGUGUCCUUGAUAACAGCUACGGGAAUAUCCCA [Omei KL FMN A Exc D v4] | 386 nM | 117 nM | 134 nM | 120 nM | 127 nM
GGAUAGGAUAGAGGAUAUGGUAUAGGCAAGAAUAACUUGUCAUGUAAAUCCAUGAGGAGUGAUGUUCCAGAAGGCUGUCCUAUCG [MatMod 9 - Jieux - Exclusion - FMN B] | 620 nM | 179 nM | 231 nM | 168 nM | 123 nM

Sequence | apparent KD of K4 kissing-loop reporter (input ligand: FMN 200 uM) | apparent KD of K4 kissing-loop reporter (input ligand: arginine 13.2 mM) | apparent KD of K4 kissing-loop reporter (input ligand: none) | apparent KD of K4 kissing-loop reporter [1] | apparent KD of K4 kissing-loop reporter [2]
GCCAGAGCGCGAAGGAGCGCCGUGACAGGUUGCUGCCGUGGGCAGUGAUGUUGCUCAGUCCGGCAGGUAGGUCGCGUGCUCUGGC | 422 nM | 434 nM | 548 nM | 433 nM | 372 nM
UGUAUGUGAUUUGAUACCAGACCAGGUGGAGGAAUCUGAGUGAUGUUCAGGUAGGUUCUGGUCCCUUGGCAGCAAAUCGCAUACU [KL-SSTheoB19] | 166 nM | 133 nM | 168 nM | 150 nM | 160 nM
AAGCAGUCACUCGAAACCAUCGAAGAUGGUCGAGGACCGGUACGGCCGCCACUCGGAGUGAUGUUCCGAAGACUGCAAAAUAAAA [#SwitchBubble 10] | 313 nM | 334 nM | 286 nM | 277 nM | 751 nM
AGUUCCGACGGAAGGAGCGGACAGUAUUGACGGAAAGGUGCAAGUGAUGUUUGCGCUUGUGUCCAGGUAGGUCGCCGUCGGAACA [Arg B SS t13] | 91.3 nM | 82.4 nM | 84.7 nM | 79.3 nM | 89.4 nM
ACAGGAUCGAAAGAUCCUGAGCAGUCUAACCGAGGACCGGUACGGCCGCCACUCGGAGUGAUGUUCCGAGGACUGCAAAAUAAAA [#SwitchBubble 2 #CoaxialStacking] | 330 nM | 305 nM | 298 nM | 329 nM | 795 nM
UGUACCGAGUCAGGAUAUGGCGUCGAAAGACGAAACCAGUGAUGUUGGAAAAUCUGCGAAAGCAGUCCAGAAGGGACUUGGUACU [FmnBS 24 #SwitchBubble #StaticStem #DoubleMagnetSystem] | 193 nM | 236 nM | 302 nM | 227 nM | 226 nM
CGAGAAUGUCGACAGUCAUCGGUCCAUGCACGAGGACCGGUACGGCCGCCACUCGAGCGUGGCAGUGAUGUUGCCAGCGCACUAA [KL-XTryp-A14] | 99.6 nM | 85.1 nM | 86.3 nM | 86 nM | 100 nM
GCAAAACGCAGUGAUGUUGCGAUAUCGGAAGGAGCGCGUGAAAACGCAGGUAGGUCGCCGAUUCAGUGAGUAUCUCGCUGUUUGC [Arginine A K4 18] | 258 nM | 283 nM | 293 nM | 259 nM | 232 nM
GUACCGCGUGCGGCCGCCACUACAUCAAUUACCUAAGCCUAGUGAUGUUGGGUUUUUGCUACAGGUAGGACCGGGCAGAUGUAUG [theeternabot_sameState_KL_Trp_B_38] | 292 nM | 225 nM | 307 nM | 263 nM | 270 nM
AAUUAAUACAGAAGGAGCGUGAAAUUAUCUAUUUUUUUUUUAGCUAGUGAUGUUAGCAUUUCACAGGUAGGUCGCUGUAUAUUUA [JR_SSArginiB_Sub009] | 148 nM | 142 nM | 166 nM | 149 nM | 138 nM
UUUAGAUGAAGUGAUACCAGACUUGAAAGUGAUGUUUUCCAAUAAUUUAAAUUAUUAGCUGUCCCUUGGCAGCACAGUUUAUUUA [JR_ExcTheophyB_Sub008] | 229 nM | 326 nM | 282 nM | 346 nM | 193 nM
ACCUUUUUUGCCAGUGAUGUUGGACAGGAAGGAGCGGGCAUAAGCCCAGGUAGGUCGCCUGUCAACUUUCUUAUAGCCCUAAGGU [KL-XArg-A17] | 365 nM | 270 nM | 507 nM | 479 nM | 349 nM
UAUCUAUGCUCGGCCGCCACUAGGACCGGGAGGUAACUAGUGAUGUUAGUAUCUUCGGCCGCCACUAGGACCGGGAGUGUAGAUA [KL-SSTryp-B17 #DoubleAptamer] | 115 nM | 95.2 nM | 92.7 nM | 95.5 nM | 74.6 nM
CAUGGUGCUCGCCAGUUGUGCGAACGGUGGGAGGAUAUGUCGCGAGACAGAAGGCCCAGUGAUGUUGGGCAGGCUCGUAGAUCGA [Mazadi] | 158 nM | 113 nM | 129 nM | 165 nM | 127 nM
GGCAUGGUGACGCGGCUGCCAUGCACUUGGGAGGAUAUGUUUCGUGACAGAAGGCCCAGUGAUGUUGGGUCUGUUCAAAAGGACU [Lerere] | 434 nM | 135 nM | 146 nM | 148 nM | 119 nM
AAUUUAUUAACUGAUACCAGACUUUAGCGCGUUUAUAAGUCAAGUGAUGUUUGACUAAUUGUCCCUUGGCAGCAGUAUUUAUUAA [JR_SSTheophyB_Sub021] | 233 nM | 210 nM | 216 nM | 157 nM | 197 nM
CGCAAGCAGCCAGUGAUGUUGGCCGCCUUGCGAGGACCGGUACGGCCGCCACUCGAAGGCGGCUACUGGUAAACCGUCUAACGGA [Oronorenma] | 94.9 nM | 71.7 nM | 66.4 nM | 62.8 nM | 90.1 nM
UGCAUGUGAAACAUGUAGGUGCUAGGUGAAGGAGCGAUCGAAAGAUCAGGUAGGUCGCACCUUCCUGAGUGAUGUUCAGGUAAUA [KL-SSArg-A2] | 60.3 nM | 31.7 nM | 47.7 nM | 55.2 nM | 46 nM
UGUGUUGUUUUGAUGUUUGUUGUAAGGUGGCAGGAUAUCGUAGAGGCGAGAAGGGCUUUUUUGCGUUAUGAGUGAUGUUUGUAGG [exeerzmullin] | 592 nM | 379 nM | 614 nM | 471 nM | 386 nM
AGUAGGAAACUACAAUCCUCUCUUACUGAAGGAGCGCGUGAAAACGCAGGUAGGUCGCAGGAUUGGAGAGUGAUGUUCUCCUUAA [Ex Arginine A K4 17] | 311 nM | 331 nM | 441 nM | 413 nM | 320 nM
UUGGGCAGUGAUGUUGGCUAGGCCACAGAUACCAGACGCAUGCACGUCCCUUGGCAGCUGCGAAAGUUAGACUUGUAAUGAUAGU [theeternabot_sameState_KL_Theo_A_45] | 418 nM | 181 nM | 321 nM | 338 nM | 217 nM
GUGAGGAGUGGUGUUGAUUAGGGAGCGGAAGGAGCGCCGAGGAAGGCAGGUAGGUCGCCGGAUUAUAGUGAUGUUAUGAAGAGGG [ExArg.K] | 482 nM | 523 nM | 551 nM | 886 nM | 338 nM
